Values belong to the molecule of their own block, whether it stands above or below them. Where a SMILES comes first, the peptide text is derived from it. The star is where a group is joined. DTPA = O=C(O)CN(CCN(CC(=O)O)CC(=O)O)CCN(CC(=O)O)CC(=O)*
Key:
GW-39 tumor xenografts [1] = assay: Pretargeting: 125-I-hMN-14 × 734 bsAb, 48 h later 111-In-indium-IMP-156, biodistribution; assay type: in vivo, nude mice; conditions: 3 h post peptide
[2] = as above; assay type: in vivo, nude mice; conditions: female, nude (Taconic NCRNU), mouse, 3 h post peptide
GW-39 tumor xenografts [3] = assay: Control group: clearance of 111-In-indium-IMP-156 alone; assay type: in vivo, nude mice; conditions: 3 h
[4] = as above; assay type: in vivo, nude mice; conditions: female, NCRNU nude, mouse, total radioactivity
[5] = Pretargeting: I-125 F6 × 734-F(ab′)2, 72 h later In-111-IMP-225, biodistribution; conditions: female, mouse, in vivo, 10 uCi, total radioactivity, % ID/g tissue

T/NT (GW-39 tumor xenografts [1]; Blood): 7.6 ± 1.5
T/NT (GW-39 tumor xenografts [1]; Kidney): 2.6 ± 0.5
T/NT (GW-39 tumor xenografts [1]; Liver): 10.6 ± 3.5
T/NT (GW-39 tumor xenografts [1]; Lungs): 12 ± 2
T/NT (GW-39 tumor xenografts [1]; Spleen): 12 ± 6
T/NT (GW-39 tumor xenografts [1]; tumor): 1
tissue uptake at 3 h ([2]; Blood): 0.7 ± 0.2 %ID/g
tissue uptake at 3 h ([2]; Kidney): 1.9 ± 0.5 %ID/g
tissue uptake at 3 h ([2]; Lungs): 0.4 ± 0.1 %ID/g
tissue uptake at 3 h ([2]; tumor): 52 ± 1.9 %ID/g
T/NT (GW-39 tumor xenografts [3]; Blood): 3.1 ± 0.7
T/NT (GW-39 tumor xenografts [3]; Kidney): 0.2 ± 0.03
T/NT (GW-39 tumor xenografts [3]; Liver): 0.3 ± 0.1
T/NT (GW-39 tumor xenografts [3]; Lungs): 3.5 ± 0.7
T/NT (GW-39 tumor xenografts [3]; Spleen): 0.5 ± 0.1
T/NT (GW-39 tumor xenografts [3]; Tumor): 1
tissue uptake at 3 h ([4]; Blood): 0.05 ± 0.01 %ID/g
tissue uptake at 3 h ([4]; Kidney): 0.93 ± 0.13 %ID/g
tissue uptake at 3 h ([4]; Liver): 0.42 ± 0.1 %ID/g
tissue uptake at 3 h ([4]; Lungs): 0.04 ± 0.01 %ID/g
tissue uptake at 3 h ([4]; Spleen): 0.28 ± 0.09 %ID/g
tissue uptake at 3 h ([4]; Tumor): 0.14 ± 0.02 %ID/g
SMILES: CC(=O)N[C@@H](Cc1ccccc1)C(=O)N[C@@H](CCCCNC(=O)CN(CCN(CCN(CC(=O)O)CC(=O)O)CC(=O)O)CC(=O)O)C(=O)N[C@@H](Cc1ccc(O)cc1)C(=O)N[C@@H](CCCCNC(=O)CN(CCN(CCN(CC(=O)O)CC(=O)O)CC(=O)O)CC(=O)O)C(N)=O [IMP 156, Ac-Phe-Lys(DTPA)-Tyr-Lys(DTPA)-NH2] (Ac-FK(DTPA)YK(DTPA)-NH2)

SMILES: COc1cccc2c1C(=O)c1c(O)c3c(c(O)c1C2=O)C[C@@](O)(C(=O)CO)C[C@@H]3O[C@H]1C[C@H](NC(=O)CSC[C@H](NC(C)=O)C(=O)N[C@@H](CCCCNC(=O)CN(CCN(CCN(CC(=O)O)CC(=O)O)CC(=O)O)CC(=O)O)C(=O)N[C@@H](Cc2ccc(O)cc2)C(=O)N[C@@H](CCCCNC(=O)CN(CCN(CCN(CC(=O)O)CC(=O)O)CC(=O)O)CC(=O)O)C(N)=O)[C@H](O)[C@H](C)O1 [IMP 225]
tissue uptake at 1 h ([5]; NCRNU nude, Spleen, 1 h): 1.6 ± 2.4 %ID/g
tissue uptake at 1 h ([5]; nude (Taconic NCRNU), Blood, 1 h): 2 ± 0.4 %ID/g
tissue uptake at 4 h ([5]; nude (Taconic NCRNU), Blood, 4 h): 1.3 ± 0.2 %ID/g
tissue uptake at 24 h ([5]; nude (Taconic NCRNU), Blood, 24 h): 0.4 ± 0.2 %ID/g
tissue uptake at 1 h ([5]; nude (Taconic NCRNU), GW-39, 1 h): 14.6 ± 14 %ID/g
tissue uptake at 4 h ([5]; nude (Taconic NCRNU), GW-39, 4 h): 16.5 ± 4.8 %ID/g
tissue uptake at 24 h ([5]; nude (Taconic NCRNU), GW-39, 24 h): 10.1 ± 2.3 %ID/g
tissue uptake at 1 h ([5]; nude (Taconic NCRNU), Kidney, 1 h): 3.8 ± 0.9 %ID/g
tissue uptake at 4 h ([5]; nude (Taconic NCRNU), Kidney, 4 h): 3.8 ± 0.4 %ID/g
tissue uptake at 24 h ([5]; nude (Taconic NCRNU), Kidney, 24 h): 1.7 ± 0.3 %ID/g
tissue uptake at 1 h ([5]; nude (Taconic NCRNU), Large Int., 1 h): 0.2 %ID/g
tissue uptake at 4 h ([5]; nude (Taconic NCRNU), Large Int., 4 h): 0.3 ± 0.1 %ID/g
tissue uptake at 24 h ([5]; nude (Taconic NCRNU), Large Int., 24 h): 0.1 %ID/g
tissue uptake at 1 h ([5]; nude (Taconic NCRNU), Liver, 1 h): 0.4 ± 0.2 %ID/g
tissue uptake at 4 h ([5]; nude (Taconic NCRNU), Liver, 4 h): 0.4 ± 0.1 %ID/g
tissue uptake at 24 h ([5]; nude (Taconic NCRNU), Liver, 24 h): 0.3 ± 0.1 %ID/g
tissue uptake at 1 h ([5]; nude (Taconic NCRNU), Lungs, 1 h): 0.8 ± 0.4 %ID/g
tissue uptake at 4 h ([5]; nude (Taconic NCRNU), Lungs, 4 h): 0.6 ± 0.1 %ID/g
tissue uptake at 24 h ([5]; nude (Taconic NCRNU), Lungs, 24 h): 0.2 ± 0.1 %ID/g
tissue uptake at 1 h ([5]; nude (Taconic NCRNU), Muscle, 1 h): 0.3 ± 0.2 %ID/g
tissue uptake at 4 h ([5]; nude (Taconic NCRNU), Muscle, 4 h): 0.2 %ID/g
tissue uptake at 24 h ([5]; nude (Taconic NCRNU), Muscle, 24 h): 0.1 %ID/g
tissue uptake at 1 h ([5]; nude (Taconic NCRNU), Small Int., 1 h): 0.4 ± 0.1 %ID/g
tissue uptake at 4 h ([5]; nude (Taconic NCRNU), Small Int., 4 h): 0.3 ± 0.2 %ID/g
tissue uptake at 24 h ([5]; nude (Taconic NCRNU), Small Int., 24 h): 0.1 %ID/g
tissue uptake at 4 h ([5]; nude (Taconic NCRNU), Spleen, 4 h): 0.4 ± 0.1 %ID/g
tissue uptake at 24 h ([5]; nude (Taconic NCRNU), Spleen, 24 h): 0.4 ± 0.1 %ID/g
tissue uptake at 1 h ([5]; nude (Taconic NCRNU), Stomach, 1 h): 1.1 ± 0.9 %ID/g
tissue uptake at 4 h ([5]; nude (Taconic NCRNU), Stomach, 4 h): 0.4 ± 0.2 %ID/g
tissue uptake at 24 h ([5]; nude (Taconic NCRNU), Stomach, 24 h): 0.1 %ID/g
tissue uptake at 1 h ([5]; nude (Taconic NCRNU), Tail, 1 h): 1.2 ± 0.1 %ID/g
tissue uptake at 4 h ([5]; nude (Taconic NCRNU), Tail, 4 h): 0.8 ± 0.2 %ID/g
tissue uptake at 24 h ([5]; nude (Taconic NCRNU), Tail, 24 h): 0.5 ± 0.7 %ID/g

Reference: patent US20060140858A1, “Drug pre-targeting by means of bi-specific antibodies and hapten constructs comprising a carrier peptide and the active agent(s)” (Immunomedics, Inc., priority 2002, published 2006)
